We go through 19 sequences from the DeepSol protein solubility set.

The nature of the data set: soluble on expression in E. coli; label from the status in PepcDB or PDB records.
Consider “MGSDKIHHHHHHMKVIKRLERYLSAAFSLGRIKSMSKDAQREIAELRLELGTLSQELKHTRQETERMWAWMRRHEALADDLVSVSRREAEVLKRTGQSDTALLLRMFSDLSRRIDGGESGRPDEKAPSSNGLPSSTGFEMFKDAFYHRFENQWRGAPEEISQRLKVYLPDVEAAWARAENKPIFDIGCGRGEWLGLLRQHGMEGIGFDTNAVQIKEGQAAGLDLRLGDALEALAQAEDNSLSVISAHHLIEHLPFDSVAWLTREAGRVLAPGGLLLFETPNTRNVLVGATTFYTDPTHLKPMPEQVMGVLLETAGFEPVDIRHINPHERLGEFLDRPGFDNELAQLMFGPQDLAILGIKSKDK”, for which the “soluble on expression in E. coli” value is listed as “not soluble”. Take “MAKDIEISASESKFILEALRQNYRLDGRSFDQFRDVEITFGKEFGDVSVKMGNTKVHCRISCQIAQPYEDRPFEGLFVISTEISPMAGSQFENGNITGEDEVLCSRIIEKSVRRSGALDVEGLCIVAGSKCWAVRADVHFLDCDGGFIDASCIAVMAGLMHFKKPDITVHGEQIIVHPVNEREPVPLGILHIPICVTFSFFNPQDTEENIKGETNSEISIIDATLKEELLRDGVLTVTLNKNREVVQVSKAGGLPMDALTLMKCCHEAYSIIEKITDQILQLLKEDSEKRNKYAAMLTSENAREI”: the “soluble on expression in E. coli” value is recorded as “soluble”. As for “MWASPSPSVTVEFLEADSRLGGREVSLCKVAGQPDIRCECGWLELQPTRRSVNYEVVSSGGVTQSAALVTADFQSAEERSRLTVTVQLSSLARDMRDGYHEGFGAGLNNLASVAGRTMVLERVIKVPRNIVWKAWMNEKTLPQWWGPEGFSCRTKRIDLRTGGEWVFDMIGPDGTVFPNHHRYVEIRPEERLAYTLLWGENGPKHADAWASFEDQDGATKVVLGMVFSTDAEFQQAKGFGAVELGQQTLGKLERFAKFFLEHHHHHH”, the entry is “soluble”; as for “MGSDKIHHHHHHMIKLILSAPVPAMAVAFEHSFQNTENVEIIPGPFETIPEFDCMVSAANSFGLMDGGVDAAITAYFGPQLQERVQQHILREYLGEQPVGTAFVIETGNSKYPWLVHAPTMRVPLIIDGTDAVYNATRAALLAIFQHNKSAGEDRKIKSVVFPAMGAGCGQVSPGSVARQMKLAWDGFINCTTEINWQYASARQNAVFSTTAYCPSKALCPNARTEYIGFGDYRTYCKKSGNTCISPRHQVDDIYIGAHSHAVFLSPNSHGKHLKPEYLSGVKNDV”, “not soluble”; as for “MSLQHACIFLELLKITYIHCMKRLLSLYLVLSGFLLHAQTVKELKTVASSFSEMAKIPAGSFLKHEYSFLNIQPTKQDTNLLFCIHPEATITKVTTSFYISTHEVTNAEYRQFIVWVTDSLIKNNITFDTVFYRYTTPSGKSTRISIVPDTMNRVLRDMFGYCNLNYYTHKEFISFPTTNISWHQAQAYIHWLNNRMLELLKKNHVPTTDWGKYRLPEALEWEYAAMIVEKNGDWFNQRNPDAYNIYGWLDYPLTTKEGLYKANFGLIRDLNHMVIKARWDDNYDALAPVKKYVPSLMGLYDLSGNVSEWTNTSISLDSLNKFYAGYYSNLLQTKYQHLFEELLKPAPDWKKFDAFKAESVRGRYDAQAQQYWFNEYVIRVKEMENYNRSILSRISDGMLVKGGSWDNPPVYMINTCSQVLSKNFTTPQTGFRVALTLEPAFEKLLGSYLTGEGHHHHHH”, “not soluble”.

In the case of “MSLNEESFEEFSMVLEDDLVGGTFSKVGEHNKRENEDFYITKDILDLNNVSESQGLCFYSGIFDGHGGSNCARYVMNHLKTNVIAKFRQSFLITCKKKFKEKGSKLNELSVELRALYDSCIKGFDMTDKNYIELSKKYNYKDGSTACIVLIYGPDDDGSLKVLCANCGDSGAFICHNKKPIKLSLRHKPDLQEERIRILKCGGIIANINGINRIITKHKDRNNLNENNNNKSKEKTFLALSTSRSFGDISYKIPRKIVQCKPFISVYTIDFDLDSFLVLATDGILNVLSDEEIIDIIWKNIHRKPEQAAEEVVNEATRRGSTDDKTCTVIFFYWRKEGHHHHHH”, the “soluble on expression in E. coli” value is “soluble”. Under “GPYGAPAGPLIVPYNLPLPGGVVPRMLITILGTVKPNANRIALDFQRGNDVAFHFNPRFNENNRRVIVCNTKLDNNWGREERQSVFPFESGKPFKIQVLVEPDHFKVAVNDAHLLQYNHRVKKLNEISKLGISGDIDLTSASYTMI” stands “soluble”; under “GMNSNFSYPALGVDGISSQISPIRDVWSTNLQQEMNLIMSLIERYPVVSMDTEFPGVVARPLGVFKSSDDYHYQTLRANVDSLKIIQIGLALSDEEGNAPVEACTWQFNFTFNLQDDMYAPESIELLTKSGIDFKKHQEVGIEPADFAELLIGSGLVLQEEVTWITFHSGYDFAYLLKAMTQIPLPAEYEEFYKILCIYFPKNYDIKYIMKSVLNNSKGLQDIADDLQIHRIGPQHQAGSDALLTARIFFEIRSRYFDGSIDSRMLNQLYGLGSTGSVLWHNNSSTPQIQFRDLPGAHPSPTPSNAGIPTTLTNTSSAPNFANSTFRFPPRVV”, “soluble”. Turning to “MAQTQLSYKNKTYQISYEILGDLSLPQILILHGWGADKKLMKQSFCPFLKDFCQIYMDLAGFGNSSVEEILNTQDYANITELFLKQKKLNVCFFMGHSFGGKVSTLLAKEKDTLILLSSAGILAKKSLKVRFKIRIFKILKLFGLGKFYRYFASKDGANLSPIMYETFKKVVDEDFSEIFAKQKAKSLIFWGKSDEATPLYCGEKMHQFLKNSTFYPLEGDHFFFLKHSAFIAQKIKEI”, the “soluble on expression in E. coli” value was “not soluble”. As to “VKSLFLLVLGNTEISTIPGISVAGATPELTKITPVADAEYLFYEKPLTIDTIPVTPEGHPTPAIITKAARELSNFPILVVRGGTYLAPLIPHVHISNVVGRDFRREPALPEVEVIIERAKLLGKELEKIANEIVIGESTPGGTTTAQAILWALGYEAKTSSASPENPQELKEKVIKEGFKRVGIEKGGLKDKPLEALKEFGDPMIATVLGLSLGFGGDVVLAGGTQMLAVSALLKSLGEDLSRFMIATTRWVVEDPSATFIETAREIGIISYVAELDFSKSKFKGLRDYERGYVKEGVGAGGATWLAV”, the “soluble on expression in E. coli” value is on record as “not soluble”. As for “MGWFGFGGNPTDTPSSSAEVSAAPIDLSAGMNFSVPGFDAPAPEPSVPDHSPFPAAPVLALDQLKSAGVGVSRQMTPYVQMDPSMFASQQPQYIMPEGGVAGKGKFEFALGHIGWAVGGAFGVGCARGALGELMNPETRKMVGKPWMTRMVNATMKHGSGFAQPSGAIVFMYSALEIGLRSVRAEDELNGFGAGALTGAIYRSPHGLKASGVGALVGLGIAAAWTLSSTDSRQRLSEMFSNH”, the entry is “soluble”. Under “MSKKLTTAAGCPVAHNQNVQTAGKRGPQLLQDVWFLEKLAHFDREVIPERRMHAKGSGAYGTFTVTHDITKYTKAKIFSDIGKKTDMFARFSTVAGERGAADAERDIRGFSLKFYTEEGNWDLAGNNTPVFFLRDPLKFPDLNHAVKRDPRTNMRSAKNNWDFWTSLPEALHQVTIVMSDRGIPATYRHMHGFGSHTFSFINSDNERYWVKFHFVSQQGIKNLSDAEAGELVGNDRESHQRDLLDSIDNQDFPKWTLKVQIMPEADAATVPYNPFDLTKVWPHKDYPLIEVGEFELNRNPQNYFAEVEQAAFNPANVVPGISFSPDKMLQGRLFAYGDAQRYRLGVNHQHIPVNAPRCPVHSYHRDGAMRVDGNFGSTLGYEPNDQGQWAEQPDFSEPPLNLDGAAAHWDHREDEDYFSQPGDLFGLMTAEKQAILFDNTARNLNGVPKEIQLRHVTHCYKADPAYGEGIGKLLGFDISEYNS” stands “soluble”; under “MSLKHHGKIKIKHAVKVLKVSRSGFYEYMHRRPSKQQVEREILSEKIKAVFHEHKGRYGAVRITKVLHNTGIMTNTKRVGKLMHLMGLYAKGSRYKYKHYNRKGASLSRPNLINQIFKATAPNKVWLGDMTYIPTKEGTLYLAVNIDVFSRKIVGWSMSSRMQDKLVRDCFLQACGKEHPQPGLIVHTDQGSQYTSSRYQSTLRQVGAQSSMSRKGNPYDNAMMESFYKTLKRELINDAHFETRAEATQEIFKYIETYYNTKRMHSGLDYKSPKDFEKYNSEGHHHHHH”, “not soluble”; under “MGSDKIHHHHHHMEEFEGEAIVEAENVVSIMLRREAAERADEILHFSYWSGEIKELDAPGYLDRWQKKCYHATCSLDEGEILLVVGPPGSGKTTFIAEAARKLSEEERVWVTSNTNIAVDNVLEKLERALRIGHPSKITAGVRRHSVEYNLLSGIRFSDYREYASKVAEAYREIARIQNDMIRKGKIVVGSTILKGMMSALKNYDFDTVIIDEASNTCISTALLALEKAEKAVVVGDPYQLPPVYEVGGHKAAKFSAYNFLINIYGKNLWLRRHYRSNAKIAEFAARHVYGFLEIDEKCRRIKIEPCKTTIPEVGDPEKPLVFIDCNGVERREGRSKVNEEEAEVVAMIAEELAECVGEENVGVITPYVKQAELIRGILSEFGVMVEVSTVHSYQGREKDVVIYSITATGNPYFASEKRLFNVALTRARKKFIAVGNSKALEGKNLLLTRFMVAAIKEGGFVRLR”, “not soluble”. As for “MNSFYSQEELKKIGFLSVGKNVLISKKASIYNPGVISVGNNVRIDDFCILSGKVTIGSYSHIAAYTALYGGEVGIEMYDFANISSRTIVYAAIDDFSGNALMGPTIPNQYKNVKTGKVILKKHVIIGAHSIIFPNVVIGEGVAVGAMSMVKESLDDWYIYVGVPVRKIKA”, the entry is “soluble”. “SPTVEACGYSDRIIQITRGDSTITSQDVANAIVAYGVWPHYLSSKDASAIDKPSQPDTSSNRFYTLRSVTWSSSSKGWWWKLPDALKDMGIFGENMFYHYLGRSGYTIHVQCNASKFHQGTLIVALIPEHQIASALHGNVNVGYNYTHPGETGREVKAETRLNPDLQPTEEYWLNFDGTLLGNITIFPHQFINLRSNNSATIIAPYVNAVPMDSMRSHNNWSLVIIPICPLETSSAINTIPITISISPMCAEFSGARAKRQ”: the “soluble on expression in E. coli” value was “soluble”. For the sequence “MGSDKIHHHHHHMAVQAKQCKAVLLCGYYGEHNLGDDALLQVLLEELPSSLQPWITANDSNVIKGLAPKAQVINRRSLLESIRALFQVQGLILGGGSLLQDSTSFKSLIYYLILIVIAQQRGVPVLLWGQGLGPFRYRLSRWMVRRVLRRVQAISWRDPDSFQLAEQWCLPSPMLMAPDPVWQLPSRSWEGGQAVVLCWRSTSMLDRFGWQHLLQALEMILTDIDAPVHWLAFHQRQDEELFRKLDRQGLISSSLRSRSHSFAFDSLTEVMNQFTMARLVLPMRLHALILAQLAGSPTVALSYDPKVSSAALMANVPFTDLQSLPDIRLLAGLWGQVLDVPPDLGKIEAIRKHASQHSKIIDKVFN”, the “soluble on expression in E. coli” value is on record as “not soluble”. Under “SLPERGKTETADGEVFLQWLRQSVTDGMLSVNESDSVLHILARFVFVASPDVFYKYTSSAGDAVQDKKQLQKSFEALSVHHSRNGKGLYHYHKYDAPDKSGGFIKVSGYMIETNLIFRKGSCPSDSIWLSPRS” stands “soluble”; under “MGSDKIHHHHHHVSSPNIDIELDALKEAVSVALAHAKKLGSSAAEVAISKQQGLSVSTRTQEVETVEFNKDGALGITVYRGGCKGSSSTSDLSTDAIALAVKAADDIARYTSEDPFSGLADSALMAKNIRDLQLYYPQDIGAEELADLAIRAEKAGVDADTRIKYSDGATANAHTSAKVYANSHGFLQGYCSSRYSLSSVVIGEESDGNMQRDYDYTVSRKFADLLSPEEVGAKAAEKTLSRLDARKIATAKLPVLFAPEIATGLIGHLIGAISGGSLYRKSSFLLDSLHTHIFPDWFSIEEQPHILSGLASANYDSEGVATQDRRIIDRGQLETYLLTSYSARKLGMTNTGHAGGIYNWTLSHSNQTFADLIKAMNTGLIVTEVMGQGVNGVTGDYSRGAAGFYVENGVIQYPVEEITIAGNLKDMFIGIQGVAMDRDLRSSIRTGGILLSEMKIAGN”, “not soluble”.
